The supplement of paper PMC11316812
± gives the standard deviation of the averaged measurements.

Legend:
hTERT-HMEC = test: percentage of EdU-negative (G0-arrested) nuclei per well, 72 h; higher = more G0 arrest; details: reference: sequence is the full UniProt precursor, the tested protein was the secreted form or ectodomain
MCF7 = test: as above; details: reference: sequence is the full UniProt precursor, the tested protein was the secreted form or ectodomain
[1] = protein concentration 0.0357143 µM
[2] = protein concentration 0.357143 µM
[3] = protein concentration 0.03125 µM
[4] = protein concentration 0.3125 µM
[5] = protein concentration 0.0133825 µM
[6] = protein concentration 0.133825 µM
[7] = protein concentration 0.0165714 µM
[8] = protein concentration 0.165714 µM
[9] = protein concentration 0.0285714 µM
[10] = protein concentration 0.285714 µM
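Also: secreted proteins added to cultured cells, EdU pulse at the end, nuclei found by Hoechst imaging, EdU status from nuclear versus surrounding ring intensity ratio, PBS as neutral control.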

MGPLSAPPCTEHIKWKGLLVTASLLNFWNLPTTAQVTIEAQPPKVSEGKDVLLLVHNLPQNLTGYIWYKGQIRDLYHYITSYVVDGQIIIYGPAYSGRETAYSNASLLIQNVTREDAGSYTLHIIKRGDGTRGVTGYFTFTLYLETPKPSISSSNLNPREAMETVILTCDPETPDTSYQWWMNGQSLPMTHRFQLSETNRTLFLFGVTKYTAGPYECEIRNSGSASRSDPVTLNLLHGPDLPRIHPSYTNYRSGDNLYLSCFANSNPPAQYSWTINGKFQQSGQNLFIPQITTKHSGLYVCSVRNSATGEESSTSLTVKVSASTRIGLLPLLNPT
percentage of EdU-negative (hTERT-HMEC; [1]): 4.65 ± 0.56%
percentage of EdU-negative (hTERT-HMEC; [2]): 5.32 ± 1.1%
percentage of EdU-negative (MCF7; [1]): 24.9 ± 2.1%
percentage of EdU-negative (MCF7; [2]): 25.4 ± 0.54%

MGPLSAPPCTQHITWKGLLLTASLLNFWNLPITAQVTIEALPPKVSEGKDVLLLVHNLPQNLAGYIWYKGQLMDLYHYITSYVVDGQINIYGPAYTGRETVYSNASLLIQNVTREDAGSYTLHIIKRGDRTRGVTGYFTFNLYLKLPKPYITINNSKPRENKDVLAFTCEPKSENYTYIWWLNGQSLPVSPRVKRPIENRILILPSVTRNETGPYECEIRDRDGGMRSDPVTLNVLYGPDLPSIYPSFTYYRSGENLYLSCFAESNPPAEYFWTINGKFQQSGQKLSIPQITTKHRGLYTCSVRNSATGKESSKSMTVEVSAPSGIGRLPLLNPI
percentage of EdU-negative (hTERT-HMEC; [3]): 4.75 ± 0.52%
percentage of EdU-negative (hTERT-HMEC; [4]): 4.28 ± 0.12%
percentage of EdU-negative (MCF7; [3]): 24.6 ± 2.5%
percentage of EdU-negative (MCF7; [4]): 26.86 ± 0.057%

MGPLSAPPCTQHITWKGLLLTASLLNFWNLPTTAQVIIEAKPPKVSEGKDVLLLVHNLPQNLTGYIWYKGQMTDLYHYITSYVVHGQIIYGPAYSGRETVYSNASLLIQNVTQEDAGSYTLHIIKRGDGTGGVTGYFTVTLYSETPKPSISSSNLNPREVMEAVRLICDPETPDASYLWLLNGQNLPMTHRLQLSKTNRTLYLFGVTKYIAGPYECEIRNPVSASRSDPVTLNLLPKLPMPYITINNLNPREKKDVLAFTCEPKSRNYTYIWWLNGQSLPVSPRVKRPIENRILILPSVTRNETGPYQCEIRDRYGGIRSNPVTLNVLYGPDLPRIYPSFTYYRSGENLDLSCFADSNPPAEYSWTINGKFQLSGQKLFIPQITTNHSGLYACSVRNSATGKEISKSMIVKVSETASPQVTYAGPNTWFQEILLL
percentage of EdU-negative (hTERT-HMEC; [5]): 4.917 ± 0.044%
percentage of EdU-negative (hTERT-HMEC; [6]): 5.76 ± 1.7%
percentage of EdU-negative (MCF7; [5]): 24.7 ± 1.5%
percentage of EdU-negative (MCF7; [6]): 27.3 ± 1.4%

MGPLSAPPCTQRITWKGLLLTALLLNFWNLPTTAQVTIEAEPTKVSKGKDVLLLVHNLPQNLAGYIWYKGQMKDLYHYITSYVVDGQIIIYGPAYSGRETVYSNASLLIQNVTREDAGSYTLHIVKRGDGTRGETGHFTFTLYLETPKPSISSSNLYPREDMEAVSLTCDPETPDASYLWWMNGQSLPMTHSLQLSKNKRTLFLFGVTKYTAGPYECEIRNPVSASRSDPVTLNLLPKLPKPYITINNLNPRENKDVLAFTCEPKSENYTYIWWLNGQSLPVSPRVKRPIENRILILPSVTRNETGPYQCEIQDRYGGIRSYPVTLNVLYGPDLPRIYPSFTYYHSGENLYLSCFADSNPPAEYSWTINGKFQLSGQKLFIPQITTKHSGLYACSVRNSATGMESSKSMTVKVSAPSGTGHLPGLNPL
percentage of EdU-negative (hTERT-HMEC; [7]): 4.85 ± 0.26%
percentage of EdU-negative (hTERT-HMEC; [8]): 5.01 ± 0.47%
percentage of EdU-negative (MCF7; [7]): 24.4 ± 1.2%
percentage of EdU-negative (MCF7; [8]): 24.3 ± 0.28%

MGPLSAPPCTQRITWKGVLLTASLLNFWNPPTTAQVTIEAQPPKVSEGKDVLLLVHNLPQNLAGYIWYKGQMTYLYHYITSYVVDGQRIIYGPAYSGRERVYSNASLLIQNVTQEDAGSYTLHIIKRRDGTGGVTGHFTFTLHLETPKPSISSSNLNPREAMEAVILTCDPATPAASYQWWMNGQSLPMTHRLQLSKTNRTLFIFGVTKYIAGPYECEIRNPVSASRSDPVTLNLLPKLSKPYITINNLNPRENKDVLTFTCEPKSKNYTYIWWLNGQSLPVSPRVKRPIENRILILPNVTRNETGPYQCEIRDRYGGIRSDPVTLNVLYGPDLPSIYPSFTYYRSGENLYLSCFAESNPRAQYSWTINGKFQLSGQKLSIPQITTKHSGLYACSVRNSATGKESSKSITVKVSDWILP
percentage of EdU-negative (hTERT-HMEC; [9]): 4.04 ± 0.52%
percentage of EdU-negative (hTERT-HMEC; [10]): 11.7 ± 1.3%
percentage of EdU-negative (MCF7; [9]): 25.3 ± 1.1%
percentage of EdU-negative (MCF7; [10]): 30.6 ± 3.2%

MGPPPGAGVSCRGGCGFSRLLAWCFLLALSPQAPGSRGAEAVWTAYLNVSWRVPHTGVNRTVWELSEEGVYGQDSPLEPVAGVLVPPDGPGALNACNPHTNFTVPTVWGSTVQVSWLALIQRGGGCTFADKIHLAYERGASGAVIFNFPGTRNEVIPMSHPGAVDIVAIMIGNLKGTKILQSIQRGIQVTMVIEVGKKHGPWVNHYSIFFVSVSFFIITAATVGYFIFYSARRLRNARAQSRKQRQLKADAKKAIGRLQLRTLKQGDKEIGPDGDSCAVCIELYKPNDLVRILTCNHIFHKTCVDPWLLEHRTCPMCKCDILKALGIEVDVEDGSVSLQVPVSNEISNSASSHEEDNRSETASSGYASVQGTDEPPLEEHVQSTNESLQLVNHEANSVAVDVIPHVDNPTFEEDETPNQETAVREIKS [Q8TEB7]
percentage of EdU-negative (hTERT-HMEC; [1]): 4.65 ± 0.73%
percentage of EdU-negative (hTERT-HMEC; [2]): 10.2 ± 2.7%
percentage of EdU-negative (MCF7; [1]): 24.4 ± 1.5%
percentage of EdU-negative (MCF7; [2]): 31.5 ± 1.1%
